Assay results taken from patent US20240400654A1.
Values joined by “and” are separate entries in the source; they are usually repeats but may differ in a detail not shown here. Equal entries are not always repeated.

Assays:
[1] = target: HRgpA-6H (Porphyromonas gingivalis) (UniProt P28784); assay: ELISA, FASEBA screening, coated HRgpA-6H 0.0625 ug/ml
[2] = target: HRgpA-6H (Porphyromonas gingivalis) (UniProt P28784); assay: ELISA, FASEBA screening, coated HRgpA-6H; variant OD over parental WT Fab OD
[3] = target: HRgpA-6H (Porphyromonas gingivalis) (UniProt P28784); assay: SPR Biacore 8K, 25 C; table lists HRgpA-6H as ligand, antibody as analyte

| Binder | OD450 nm [1] | Ratio OD(Variant)/OD(WT) [2] | Kd [3] [nM] | koff [3] [s⁻¹] | kon [3] [M⁻¹ s⁻¹] |
| --- | --- | --- | --- | --- | --- |
| KB001 parental mouse Fab FASEBA variant VH F101S (Fab, V domains shown) VH: EVQLKQSGPGLVAPSQSLSITCTVSGFSLSIYSVHWVRQPPGKGLEWLGMIWGGGSSDYNSALKSRLSISKDNSKSQVFLKMNSLQTDDTAMYYCARNGNSYAMDYWGQGTSVTVSS VL: QIVLTQSPAIMSASLGERVTMTCTASSSVSSSFLHWYQQKPGSSPQLWIYSTSNLASGVPARFSGSGSGTSYSLTISSMEAEDAATYYCHQYHHSPYIYTFGGGTKLEIK | 0.678 and 0.725 | 0.8 and 0.856 |  |  |  |
| KB001 parental mouse Fab FASEBA variant VH Y106K (Fab, V domains shown) VH: EVQLKQSGPGLVAPSQSLSITCTVSGFSLSIYSVHWVRQPPGKGLEWLGMIWGGGSSDYNSALKSRLSISKDNSKSQVFLKMNSLQTDDTAMYYCARNGNFYAMDKWGQGTSVTVSS VL: QIVLTQSPAIMSASLGERVTMTCTASSSVSSSFLHWYQQKPGSSPQLWIYSTSNLASGVPARFSGSGSGTSYSLTISSMEAEDAATYYCHQYHHSPYIYTFGGGTKLEIK | 0.767 | 0.997 |  |  |  |
| KB001 parental mouse Fab FASEBA variant VH A103M (Fab, V domains shown) VH: EVQLKQSGPGLVAPSQSLSITCTVSGFSLSIYSVHWVRQPPGKGLEWLGMIWGGGSSDYNSALKSRLSISKDNSKSQVFLKMNSLQTDDTAMYYCARNGNFYMMDYWGQGTSVTVSS VL: QIVLTQSPAIMSASLGERVTMTCTASSSVSSSFLHWYQQKPGSSPQLWIYSTSNLASGVPARFSGSGSGTSYSLTISSMEAEDAATYYCHQYHHSPYIYTFGGGTKLEIK | 0.811 | 0.941 |  |  |  |
| KB001 parental mouse Fab FASEBA variant VH A103C (Fab, V domains shown) VH: EVQLKQSGPGLVAPSQSLSITCTVSGFSLSIYSVHWVRQPPGKGLEWLGMIWGGGSSDYNSALKSRLSISKDNSKSQVFLKMNSLQTDDTAMYYCARNGNFYCMDYWGQGTSVTVSS VL: QIVLTQSPAIMSASLGERVTMTCTASSSVSSSFLHWYQQKPGSSPQLWIYSTSNLASGVPARFSGSGSGTSYSLTISSMEAEDAATYYCHQYHHSPYIYTFGGGTKLEIK | 0.77 | 0.893 |  |  |  |
| KB001 parental mouse Fab FASEBA variant VH A103V (Fab, V domains shown) VH: EVQLKQSGPGLVAPSQSLSITCTVSGFSLSIYSVHWVRQPPGKGLEWLGMIWGGGSSDYNSALKSRLSISKDNSKSQVFLKMNSLQTDDTAMYYCARNGNFYVMDYWGQGTSVTVSS VL: QIVLTQSPAIMSASLGERVTMTCTASSSVSSSFLHWYQQKPGSSPQLWIYSTSNLASGVPARFSGSGSGTSYSLTISSMEAEDAATYYCHQYHHSPYIYTFGGGTKLEIK | 0.849 and 0.807 | 0.985 and 0.936 |  |  |  |
| KB001 parental mouse Fab FASEBA variant VH Y106I (Fab, V domains shown) VH: EVQLKQSGPGLVAPSQSLSITCTVSGFSLSIYSVHWVRQPPGKGLEWLGMIWGGGSSDYNSALKSRLSISKDNSKSQVFLKMNSLQTDDTAMYYCARNGNFYAMDIWGQGTSVTVSS VL: QIVLTQSPAIMSASLGERVTMTCTASSSVSSSFLHWYQQKPGSSPQLWIYSTSNLASGVPARFSGSGSGTSYSLTISSMEAEDAATYYCHQYHHSPYIYTFGGGTKLEIK | 0.73 and 0.728 and 0.764 | 0.949 and 0.947 and 0.993 |  |  |  |
| KB001 parental mouse Fab FASEBA variant VH A103K (Fab, V domains shown) VH: EVQLKQSGPGLVAPSQSLSITCTVSGFSLSIYSVHWVRQPPGKGLEWLGMIWGGGSSDYNSALKSRLSISKDNSKSQVFLKMNSLQTDDTAMYYCARNGNFYKMDYWGQGTSVTVSS VL: QIVLTQSPAIMSASLGERVTMTCTASSSVSSSFLHWYQQKPGSSPQLWIYSTSNLASGVPARFSGSGSGTSYSLTISSMEAEDAATYYCHQYHHSPYIYTFGGGTKLEIK | 0.723 | 0.839 |  |  |  |
| KB001 parental mouse Fab FASEBA variant VH F101W (Fab, V domains shown) VH: EVQLKQSGPGLVAPSQSLSITCTVSGFSLSIYSVHWVRQPPGKGLEWLGMIWGGGSSDYNSALKSRLSISKDNSKSQVFLKMNSLQTDDTAMYYCARNGNWYAMDYWGQGTSVTVSS VL: QIVLTQSPAIMSASLGERVTMTCTASSSVSSSFLHWYQQKPGSSPQLWIYSTSNLASGVPARFSGSGSGTSYSLTISSMEAEDAATYYCHQYHHSPYIYTFGGGTKLEIK | 0.825 and 0.828 and 0.802 | 0.974 and 0.978 and 0.947 |  |  |  |
| KB001 parental mouse Fab FASEBA variant VH Y106D (Fab, V domains shown) VH: EVQLKQSGPGLVAPSQSLSITCTVSGFSLSIYSVHWVRQPPGKGLEWLGMIWGGGSSDYNSALKSRLSISKDNSKSQVFLKMNSLQTDDTAMYYCARNGNFYAMDDWGQGTSVTVSS VL: QIVLTQSPAIMSASLGERVTMTCTASSSVSSSFLHWYQQKPGSSPQLWIYSTSNLASGVPARFSGSGSGTSYSLTISSMEAEDAATYYCHQYHHSPYIYTFGGGTKLEIK | 0.675 | 0.878 |  |  |  |
| KB001 parental mouse Fab FASEBA variant VH A103I (Fab, V domains shown) VH: EVQLKQSGPGLVAPSQSLSITCTVSGFSLSIYSVHWVRQPPGKGLEWLGMIWGGGSSDYNSALKSRLSISKDNSKSQVFLKMNSLQTDDTAMYYCARNGNFYIMDYWGQGTSVTVSS VL: QIVLTQSPAIMSASLGERVTMTCTASSSVSSSFLHWYQQKPGSSPQLWIYSTSNLASGVPARFSGSGSGTSYSLTISSMEAEDAATYYCHQYHHSPYIYTFGGGTKLEIK | 0.695 and 0.693 | 0.806 and 0.804 |  |  |  |
| KB001 parental mouse Fab FASEBA variant VH F101M (Fab, V domains shown) VH: EVQLKQSGPGLVAPSQSLSITCTVSGFSLSIYSVHWVRQPPGKGLEWLGMIWGGGSSDYNSALKSRLSISKDNSKSQVFLKMNSLQTDDTAMYYCARNGNMYAMDYWGQGTSVTVSS VL: QIVLTQSPAIMSASLGERVTMTCTASSSVSSSFLHWYQQKPGSSPQLWIYSTSNLASGVPARFSGSGSGTSYSLTISSMEAEDAATYYCHQYHHSPYIYTFGGGTKLEIK | 0.755 | 0.891 |  |  |  |
| KB001 parental mouse Fab FASEBA variant VH M104V (Fab, V domains shown) VH: EVQLKQSGPGLVAPSQSLSITCTVSGFSLSIYSVHWVRQPPGKGLEWLGMIWGGGSSDYNSALKSRLSISKDNSKSQVFLKMNSLQTDDTAMYYCARNGNFYAVDYWGQGTSVTVSS VL: QIVLTQSPAIMSASLGERVTMTCTASSSVSSSFLHWYQQKPGSSPQLWIYSTSNLASGVPARFSGSGSGTSYSLTISSMEAEDAATYYCHQYHHSPYIYTFGGGTKLEIK | 0.654 | 0.85 |  |  |  |
| KB001 parental mouse Fab FASEBA variant VH F101L (Fab, V domains shown) VH: EVQLKQSGPGLVAPSQSLSITCTVSGFSLSIYSVHWVRQPPGKGLEWLGMIWGGGSSDYNSALKSRLSISKDNSKSQVFLKMNSLQTDDTAMYYCARNGNLYAMDYWGQGTSVTVSS VL: QIVLTQSPAIMSASLGERVTMTCTASSSVSSSFLHWYQQKPGSSPQLWIYSTSNLASGVPARFSGSGSGTSYSLTISSMEAEDAATYYCHQYHHSPYIYTFGGGTKLEIK | 0.681 | 0.804 |  |  |  |
| KB001 parental mouse Fab FASEBA variant VH Y106H (Fab, V domains shown) VH: EVQLKQSGPGLVAPSQSLSITCTVSGFSLSIYSVHWVRQPPGKGLEWLGMIWGGGSSDYNSALKSRLSISKDNSKSQVFLKMNSLQTDDTAMYYCARNGNFYAMDHWGQGTSVTVSS VL: QIVLTQSPAIMSASLGERVTMTCTASSSVSSSFLHWYQQKPGSSPQLWIYSTSNLASGVPARFSGSGSGTSYSLTISSMEAEDAATYYCHQYHHSPYIYTFGGGTKLEIK | 0.722 | 0.939 |  |  |  |
| KB001 parental mouse Fab FASEBA variant VH Y106W (Fab, V domains shown) VH: EVQLKQSGPGLVAPSQSLSITCTVSGFSLSIYSVHWVRQPPGKGLEWLGMIWGGGSSDYNSALKSRLSISKDNSKSQVFLKMNSLQTDDTAMYYCARNGNFYAMDWWGQGTSVTVSS VL: QIVLTQSPAIMSASLGERVTMTCTASSSVSSSFLHWYQQKPGSSPQLWIYSTSNLASGVPARFSGSGSGTSYSLTISSMEAEDAATYYCHQYHHSPYIYTFGGGTKLEIK | 0.733 and 0.748 | 0.953 and 0.973 |  |  |  |
| KB001 parental mouse Fab FASEBA variant VH M104L (Fab, V domains shown) VH: EVQLKQSGPGLVAPSQSLSITCTVSGFSLSIYSVHWVRQPPGKGLEWLGMIWGGGSSDYNSALKSRLSISKDNSKSQVFLKMNSLQTDDTAMYYCARNGNFYALDYWGQGTSVTVSS VL: QIVLTQSPAIMSASLGERVTMTCTASSSVSSSFLHWYQQKPGSSPQLWIYSTSNLASGVPARFSGSGSGTSYSLTISSMEAEDAATYYCHQYHHSPYIYTFGGGTKLEIK | 0.786 | 0.904 |  |  |  |
| KB001 parental mouse Fab FASEBA variant VH A103G (Fab, V domains shown) VH: EVQLKQSGPGLVAPSQSLSITCTVSGFSLSIYSVHWVRQPPGKGLEWLGMIWGGGSSDYNSALKSRLSISKDNSKSQVFLKMNSLQTDDTAMYYCARNGNFYGMDYWGQGTSVTVSS VL: QIVLTQSPAIMSASLGERVTMTCTASSSVSSSFLHWYQQKPGSSPQLWIYSTSNLASGVPARFSGSGSGTSYSLTISSMEAEDAATYYCHQYHHSPYIYTFGGGTKLEIK | 0.815 and 0.804 and 0.755 | 0.945 and 0.933 and 0.876 |  |  |  |
| KB001 parental mouse Fab FASEBA variant VH Y106Q (Fab, V domains shown) VH: EVQLKQSGPGLVAPSQSLSITCTVSGFSLSIYSVHWVRQPPGKGLEWLGMIWGGGSSDYNSALKSRLSISKDNSKSQVFLKMNSLQTDDTAMYYCARNGNFYAMDQWGQGTSVTVSS VL: QIVLTQSPAIMSASLGERVTMTCTASSSVSSSFLHWYQQKPGSSPQLWIYSTSNLASGVPARFSGSGSGTSYSLTISSMEAEDAATYYCHQYHHSPYIYTFGGGTKLEIK | 0.768 | 0.999 |  |  |  |
| KB001 parental mouse Fab FASEBA variant VH A103L (Fab, V domains shown) VH: EVQLKQSGPGLVAPSQSLSITCTVSGFSLSIYSVHWVRQPPGKGLEWLGMIWGGGSSDYNSALKSRLSISKDNSKSQVFLKMNSLQTDDTAMYYCARNGNFYLMDYWGQGTSVTVSS VL: QIVLTQSPAIMSASLGERVTMTCTASSSVSSSFLHWYQQKPGSSPQLWIYSTSNLASGVPARFSGSGSGTSYSLTISSMEAEDAATYYCHQYHHSPYIYTFGGGTKLEIK | 0.783 | 0.908 |  |  |  |
| H8 (antibody, V domains shown) VH: QVQLQESGPGLVKPSETLSLTCTVSGFSLSIYSVHWIRQPPGKGLEWIGMIWGGGSSDYNSALKSRLTISKDTSKNQVSLKLSSVTAADTAVYYCARNGNFYAMDYWGQGTLVTVSS VL: EIVLTQSPGTLSLSPGERATLSCTASSSVSSSFLHWYQQKPGQAPQLWIYSTSNLASGIPARFSGSGSGTDYTLTISRLEPEDFATYYCHQYHHSPYIYTFGGGTKLEIK |  |  | 1.33 | 6.7e-05 | 50300 |
